Patent publication US11951131B2, “Anti-SLAMF7 chimeric antigen receptors” (The United States of America, as represented by the …, priority 2018, dated 2024)

Assays:
Format in all cases: cell-based, human
SLAMF7^+ target cells = assay: IFN-gamma ELISA and functional assays; details: 4-1BB-containing CAR compared to Luc90-CD828Z (Table C)
Protocol: (§1) One-hundred thousand SLAMF7^+ or SLAMF7-negative target cells were combined with 100,000 CAR-transduced T cells in duplicate wells of a 96 well round bottom plate in 200 µL of AIM V™ medium (Invitrogen) plus 5% human serum. The plates were incubated at 37° C. for 18-20 hours. Following the incubation, ELISAs (enzyme-linked immunosorbent assays) for IFNγ were performed by using standard methods.
CAR-expressing T cells cultured alone produced very low levels of IFNγ. IFNγ production of T cells expressing a CAR with a 4-1BB moiety, Luc90-CD8BBZ, was compared to IFNγ production of T cells expressing Luc90-CD828Z (Table C). […] Low levels of soluble SLAMF7 are found in the serum of some MM patients (see Tai, et al., Blood, 112(4): 1329-1337 (2008)). IFNγ ELISA assays were conducted to determine if adding SLAMF7 to cultures of anti-SLAMF7 CAR T cells plus target cells could block IFNγ release by the CAR T cells (Table D). IFNγ release by the CART cells was used as a measure recognition of the SLAMF7^+ target cells by the CAR T cells. The concentrations of soluble SLAMF7 added to the cultures were similar to those found in the blood of patients. Blocking of SLAMF7^+ target cell recognition by the soluble SLAMF7 was not observed. Also, activation of the anti-SLAMF7 CAR T cells by the soluble SLAMF7 was not observed.

CCRF-CEM = assay: IFN-gamma ELISA, CAR T cells with CCRF-CEM target cells; details: Table C
Description: (§2) MM.1S is a SLAMF7^+ multiple myeloma cell line that was obtained from American Type Culture Collection (ATCC). A549 is a BCMA-negative lung cancer cell line (ATCC). TC71 is a BCMA-negative sarcoma cell line. CCRF-CEM, 293T, and A549 are SLAMF7-negative cell lines (ATCC). COL0207, HepG2, U251, Panc10.05, and TC71 are […] that were kind gifts from Dr. Steven Rosenberg, National Cancer Institute. SLAMF7-K562 are K562 cells (ATCC) which were transduced with the gene for full-length SLAMF7. SLAMF7-RPMI are RPMI8226 cells (ATCC) which were transduced with the gene for full-length SLAMF7. NGFR-K562 are K562 cells which were transduced with the gene for low-affinity nerve growth factor (Kochenderfer et al., J. Immunother., 32(7): 689-702 (2009)). All of the human samples mentioned were obtained from patients enrolled in IRB-approved clinical trials at the National Cancer Institute.
as §1
(§3) All values are pg/mL of IFN-gamma. T cells that were either untransduced or transduced with one of the indicated CARs were cultured with target cells overnight, and a standard IFN-gamma ELISA was performed on the culture supernatant.

NGFR-K562 = assay: IFN-gamma ELISA, CAR T cells with NGFR-K562 target cells
Description: as §2, §1
(§4) The T cells columns indicate whether T cells were transduced with Luc90-CD828Z, Luc63-CD828Z, or were untransduced. The % CAR^+ in Table B-1 was determined by staining the T cells with Protein L. Except for the % CAR^+ column, all values are pg/mL of IFN-gamma. T cells that were either untransduced or transduced with one of the indicated CARs were cultured with target cells overnight and a standard IFN-gamma ELISA was performed on the culture supernatant.
as §3
(§5) The values in the cells are pg/mL of IFN-gamma. T cells that were either untransduced or transduced with one of the indicated CARs were cultured with target cells overnight, and a standard IFN-gamma ELISA was performed on the culture supernatant. The concentrations of 0, 50, or 200 ng/mL at the top of each column indicates the concentration of soluble SLAMF7 added to all T cell plus target cell overnight cultures in that column. The soluble SLAMF7 was added at the beginning of the overnight culture.

T cells only = assay: IFN-gamma ELISA, T cells only (no target cells)
Protocol: as §1, §4, §3, §5

H929 = assay: IFN-gamma ELISA, CAR T cells with H929 target cells; details: Table C
Protocol: as §1, §3

SLAMF7-K562 = assay: IFN-gamma ELISA, CAR T cells cultured overnight with SLAMF7-K562 target cells
Description: as §2, §1, §4, §3

SLAMF7-RPMI = assay: IFN-gamma ELISA, CAR T cells cultured overnight with SLAMF7-RPMI target cells
Description: as §2, §1, §4, §3, §5

MM.1S = assay: IFN-gamma ELISA, CAR T cells with MM.1S target cells; details: Table C
Description: as §2, §1, §3

COLO 205 = assay: IFN-gamma ELISA, CAR T cells with COLO 205 target cells; details: Table B-1
Description: as §2
(§6) One-hundred thousand SLAMF7^+ or SLAMF7-negative target cells were combined with 100,000 CAR-transduced T cells in duplicate wells of a 96 well round bottom plate in 200 µL of AIM V™ medium (Invitrogen) plus 5% human serum. […]
(§7) The T cells columns indicate whether T cells were transduced with Luc90-CD828Z, Luc63-CD828Z, or were untransduced. The % CAR^+ in Table B-1 was determined by staining the T cells with Protein L. Except for the % CAR^+ column, all values are pg/mL of IFN-gamma. […]

TC71 = assay: IFN-gamma ELISA, CAR T cells with TC71 target cells; details: Table B-2
Description: as §2, §6, §7

HepG2 = assay: IFN-gamma ELISA, CAR T cells with HepG2 target cells; details: Table B-1
Description: as §2, §6, §7

U251 = assay: IFN-gamma ELISA, CAR T cells with U251 target cells; details: Table B-2
Description: as §2, §6, §7

Panc 10.05 = assay: IFN-gamma ELISA, CAR T cells with Panc 10.05 target cells; details: Table B-2
Description: as §2, §6, §7

293T = assay: IFN-gamma ELISA, CAR T cells with 293T target cells; details: Table B-1; SLAMF7-negative cell line
Description: as §2, §6, §7

A549 = assay: IFN-gamma ELISA, CAR T cells with A549 target cells; details: Table B-2; SLAMF7-negative
Description: as §2, §6, §7

[1] = Table D, soluble SLAMF7 added 0 ng/ml
[2] = Table D, soluble SLAMF7 added 50 ng/ml
[3] = Table D, soluble SLAMF7 added 200 ng/ml

Luc90-CD8BBZ: anti-SLAMF7 CAR (SEQ ID NO: 29): Luc90-CD828Z with the CD28 moiety replaced with a 4-1BB moiety
background cytokine release (SLAMF7^+ target cells): Generally higher background cytokine release | IFN-gamma, target cells CCRF-CEM (CCRF-CEM): 278 pg/mL | IFN-gamma, target cells NGFR-K562 (NGFR-K562; Table C): 434 pg/mL | IFN-gamma, T cells only (T cells only; Table C): 531 pg/mL | IFN-gamma, target cells H929 (H929): 856 pg/mL | IFN-gamma, target cells SLAMF7-K562 (SLAMF7-K562; Table C): 16697 pg/mL | IFN-gamma, target cells SLAMF7-RPMI8226 (SLAMF7-RPMI; Table C, overnight culture): 19713 pg/mL | IFN-gamma, target cells MM.1S (MM.1S): 5101 pg/mL

B1: Luc63-CD828Z: anti-SLAMF7 CAR (SEQ ID NO: 28): identical to Luc90-CD828Z except scFv from humanized Luc63 antibody (protein)
chain: MALPVTALLLPLALLLHAARPDIQMTQSPSSLSASVGDRVTITCKASQDVGIAVAWYQQKPGKVPKLLIYWASTRHTGVPDRFSGSGSGTDFTLTISSLQPEDVATYYCQQYSSYPYTFGQGTKVEIKGSTSGSGKPGSGEGSTKGEVQLVESGGGLVQPGGSLRLSCAASGFDFSRYWMSWVRQAPGKGLEWIGEINPDSSTINYAPSLKDKFIISRDNAKNSLYLQMNSLRAEDTAVYYCARPDGNYWYFDVWGQGTLVTVSSFVPVFLPAKPTTTPAPRPPTPAPTIASQPLSLRPEACRPAAGGAVHTRGLDFACDIYIWAPLAGTCGVLLLSLVITLYCNHRNRSKRSRLLHSDYMNMTPRRPGPTRKHYQPYAPPRDFAAYRSRVKFSRSADAPAYQQGQNQLYNELNLGRREEYDVLDKRRGRDPEMGGKPRRKNPQEGLYNELQKDKMAEAYSEIGMKGERRRGKGHDGLYQGLSTATKDTYDALHMQALPPR
IFN-gamma, target cells COLO 205 (COLO 205): 29 pg/mL | IFN-gamma, target cells TC71 (TC71): 113 pg/mL | IFN-gamma, target cells HepG2 (HepG2): 33 pg/mL | IFN-gamma, target cells NGFR-K562 (NGFR-K562; Table B-2, SLAMF7-negative): 78 pg/mL | IFN-gamma, target cells NGFR K562 0 ng/ml (NGFR-K562; [1]): 191 pg/mL | IFN-gamma, target cells NGFR K562 50 ng/ml (NGFR-K562; [2]): 98 pg/mL | IFN-gamma, target cells NGFR K562 200 ng/ml (NGFR-K562; [3]): 83 pg/mL | IFN-gamma, target cells U251 (U251): 46 pg/mL | IFN-gamma, T cells only (T cells only; Table B-2): 71 pg/mL | IFN-gamma, T cells 0 ng/ml (T cells only; Table D, no target cells, soluble SLAMF7 0 ng/ml): 20 pg/mL | IFN-gamma, T cells 50 ng/ml (T cells only; Table D, no target cells, soluble SLAMF7 50 ng/ml): 22 pg/mL | IFN-gamma, T cells 200 ng/ml (T cells only; Table D, no target cells, soluble SLAMF7 200 ng/ml): 30 pg/mL | IFN-gamma, target cells Panc 10.05 (Panc 10.05): 53 pg/mL | IFN-gamma, target cells 293T (293T): 38 pg/mL | IFN-gamma, target cells A549 (A549): 76 pg/mL | IFN-gamma, target cells SLAMF7-K562 (SLAMF7-K562; Table B-1, overnight culture): 7106 pg/mL | IFN-gamma, target cells SLAMF7-K562 (SLAMF7-K562; Table B-2, overnight culture): 7524 pg/mL | IFN-gamma, target cells SLAMF7-RPMI (SLAMF7-RPMI; Table B-1, overnight culture, ELISA on supernatant): 8123 pg/mL | IFN-gamma, target cells SLAMF7 RPMI 0 ng/ml (SLAMF7-RPMI; [1]): 3495 pg/mL | IFN-gamma, target cells SLAMF7 RPMI 50 ng/ml (SLAMF7-RPMI; [2]): 2.873 ng/mL | IFN-gamma, target cells CD319 RPMI 200 ng/ml (SLAMF7-RPMI; [3]): 3083 pg/mL
